# Values of other authors, collected in patent US20250388691A1, “METHODS FOR TREATING LYMPHOMA” (Xencor, Inc., priority 2022, published 2025).
# Tests used:
# R/R DLBCL = conditions: ongoing Phase 1 study XmAb13676-01, NCT02924402
# [1] = plamotamab, Investigator's Brochure, 2021
substance,measurement,setting,value
plamotamab: humanized bsAb that binds both CD3 and the tumor antigen CD20; Fab-scFv-Fc format,"TLS, R/R NHL subjects","Phase 1 monotherapy, 2 of the 80 R/R NHL subjects",2.5%
same,"any-grade TLS, subjects","Phase 1 monotherapy, CD20-expressing hematologic malignancies, 4 of 96 subjects",4.2%
same,CRS,"XmAb13676-01 study, especially with the Cycle 1 Day 1 dose",frequently observed
same,serious or fatal events of TLS,plamotamab monotherapy in R/R DLBCL,no serious or fatal events of TLS
same,Adverse events of neutropenia (all grades),[1],20.8%
same,Adverse events of thrombocytopenia (all grades),[1],24.0%
same,responses in subjects with R/R DLBCL,R/R DLBCL,durable responses
